Assay results from patent publication US20120003214A1.

What was measured:
[1] = biological target: apical membrane antigen-1 (AMA1) of Plasmodium falciparum, strain 3D7 (Plasmodium falciparum); assay: protein bioarray
[2] = biological target: apical membrane antigen-1 (AMA1) of Plasmodium falciparum, strain 3D7 (Plasmodium falciparum); assay: biosensor, purified proteins
[3] = biological target: apical membrane antigen-1 (AMA1) of Plasmodium falciparum, strain 3D7 (Plasmodium falciparum); assay: ELISA, biosensor and protein bioarray
[4] = biological target: apical membrane antigen-1 (AMA1) of Plasmodium falciparum, strain 3D7 (Plasmodium falciparum); assay: not stated (screen of a random mutagenesis library against AMA1)

Row | Binder | Kd [1] [nM] | fold better affinity than 12Y-2 [2] [fold] | fold better affinity than 14M-15 [3] [fold] | fold enhanced affinity over the wild type 12Y-2 [4] [fold]
1 | VNAR 22A-2 (12Y-2 Thr39Ser; Pro90Leu) (VNAR) VNAR: AWVDQTPRTATKETGESLTINCVLRDASFELKDTGWYRSKLGSTNEQSISIGGRYVETVNKGSKSFSLRISDLRVEDSGTYKCQAFYSLLLGDYNYSLLFRGEKGAGTALTVK | 2.6 | 20 | 2 | –
2 | VNAR 14M-15 (12Y-2 Pro90Leu variant) (VNAR) VNAR: AWVDQTPRTATKETGESLTINCVLRDASFELKDTGWYRTKLGSTNEQSISIGGRYVETVNKGSKSFSLRISDLRVEDSGTYKCQAFYSLLLGDYNYSLLFRGEKGAGTALTVK | 6.5 | – | – | 10
3 | VNAR 14M-8 (12Y-2 Phe100Leu) (VNAR) VNAR: AWVDQTPRTATKETGESLTINCVLRDASFELKDTGWYRTKLGSTNEQSISIGGRYVETVNKGSKSFSLRISDLRVEDSGTYKCQAFYSLPLGDYNYSLLLRGEKGAGTALTVK | – | – | – | 10
